The series addresses Tenascin-C (Homo sapiens) (UniProt P24821). Nature of the series: filter. The conditions noted are these: 2'-F all C and U; 2'-OMe all A and G except G1,G9,G28,G31,G34 (TN9 numbering) 2'-OH; (CH2CH2O)6 spacer replaces nt 10-26 (n in SEQ 64); 5' hexylamine; 3'-3' dT cap.

Sequence of Tenascin-C (Homo sapiens) (P24821 23-2201): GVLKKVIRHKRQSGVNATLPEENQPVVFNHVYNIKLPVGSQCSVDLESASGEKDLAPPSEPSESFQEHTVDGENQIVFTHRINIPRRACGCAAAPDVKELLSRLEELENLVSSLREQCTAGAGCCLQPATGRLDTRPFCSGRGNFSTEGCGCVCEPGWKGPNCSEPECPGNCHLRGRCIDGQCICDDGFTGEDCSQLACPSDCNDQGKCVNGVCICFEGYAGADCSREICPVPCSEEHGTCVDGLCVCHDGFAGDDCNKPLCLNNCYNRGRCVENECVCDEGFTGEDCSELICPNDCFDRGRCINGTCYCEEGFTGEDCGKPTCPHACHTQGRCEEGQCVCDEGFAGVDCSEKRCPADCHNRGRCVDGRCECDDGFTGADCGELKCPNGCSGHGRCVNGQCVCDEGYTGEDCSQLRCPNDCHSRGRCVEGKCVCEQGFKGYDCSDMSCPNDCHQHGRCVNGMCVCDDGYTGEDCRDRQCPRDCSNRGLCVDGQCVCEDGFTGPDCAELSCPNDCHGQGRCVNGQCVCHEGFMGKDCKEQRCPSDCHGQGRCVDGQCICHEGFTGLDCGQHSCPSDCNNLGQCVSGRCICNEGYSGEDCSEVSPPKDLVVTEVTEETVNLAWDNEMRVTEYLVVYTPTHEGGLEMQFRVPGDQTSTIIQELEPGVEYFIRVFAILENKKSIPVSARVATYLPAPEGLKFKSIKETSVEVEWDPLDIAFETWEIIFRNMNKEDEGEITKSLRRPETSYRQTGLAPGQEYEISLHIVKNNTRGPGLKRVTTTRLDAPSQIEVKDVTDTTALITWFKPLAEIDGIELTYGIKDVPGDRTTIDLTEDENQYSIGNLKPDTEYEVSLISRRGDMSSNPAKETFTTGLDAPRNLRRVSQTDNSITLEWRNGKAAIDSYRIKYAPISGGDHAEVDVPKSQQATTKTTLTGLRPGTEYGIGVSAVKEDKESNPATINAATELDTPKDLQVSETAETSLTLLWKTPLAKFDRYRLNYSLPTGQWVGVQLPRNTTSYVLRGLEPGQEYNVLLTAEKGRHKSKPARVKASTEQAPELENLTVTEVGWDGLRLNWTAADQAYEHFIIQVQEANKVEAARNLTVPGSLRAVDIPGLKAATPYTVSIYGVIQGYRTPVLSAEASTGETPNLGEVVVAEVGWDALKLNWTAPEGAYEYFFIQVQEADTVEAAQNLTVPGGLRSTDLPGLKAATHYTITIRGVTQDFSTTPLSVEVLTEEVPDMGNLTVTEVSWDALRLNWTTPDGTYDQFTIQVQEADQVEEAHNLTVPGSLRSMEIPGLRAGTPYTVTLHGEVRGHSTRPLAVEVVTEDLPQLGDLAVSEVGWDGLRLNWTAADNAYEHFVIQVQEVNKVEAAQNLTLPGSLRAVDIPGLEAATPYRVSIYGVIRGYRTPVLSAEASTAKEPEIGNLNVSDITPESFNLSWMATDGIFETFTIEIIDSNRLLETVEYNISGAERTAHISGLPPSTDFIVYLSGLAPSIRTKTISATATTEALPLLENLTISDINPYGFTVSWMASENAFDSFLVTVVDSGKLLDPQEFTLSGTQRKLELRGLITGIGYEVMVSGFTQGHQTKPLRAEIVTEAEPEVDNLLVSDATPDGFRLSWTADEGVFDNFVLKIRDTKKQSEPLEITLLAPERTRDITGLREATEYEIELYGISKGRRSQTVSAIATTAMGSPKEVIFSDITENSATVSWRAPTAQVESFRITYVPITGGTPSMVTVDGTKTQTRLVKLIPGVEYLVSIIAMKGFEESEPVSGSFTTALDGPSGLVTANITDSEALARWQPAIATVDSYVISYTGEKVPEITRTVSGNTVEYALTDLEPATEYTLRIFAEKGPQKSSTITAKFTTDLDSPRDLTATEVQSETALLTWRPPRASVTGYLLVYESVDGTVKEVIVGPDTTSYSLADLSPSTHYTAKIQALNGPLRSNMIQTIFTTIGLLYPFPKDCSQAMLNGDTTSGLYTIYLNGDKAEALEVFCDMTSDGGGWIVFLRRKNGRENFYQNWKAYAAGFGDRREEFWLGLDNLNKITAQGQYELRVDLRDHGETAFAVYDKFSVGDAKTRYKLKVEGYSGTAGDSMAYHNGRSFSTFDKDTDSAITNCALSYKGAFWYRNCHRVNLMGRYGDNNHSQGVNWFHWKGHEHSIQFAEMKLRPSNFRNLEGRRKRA

What is called Kd is the equilibrium constant for the complex coming apart. “GGGAGGACGNCGUCGCCGUAAUGGAUGUUUUGCUCCCUG [TTA1 (GS7641)]” showed a Kd of 5 nM.
